# Source: patent US20250382363A1 (NUMAB THERAPEUTICS, published 2025)
# Positions count from the first letter of the chain named. In names and notes the source's numbering stands.
# B1: PRO2993 (scFv 54-21-H03-sc01_(P15A)) (scFv)
# scFv: DIQMTQSPSSLSASVGDRVTITCQASESIYSSLAWYQQKPGKAPKLLIYLASTLASGVPSRFSGSGSGTDFTLTISSLQPEDFATYYCQSTDYTTSTHRNSFGTGTKVTVLGGGGGSGGGGSGGGGSGGGGSEVQLVESGGGLVQAGGSLRLSCAASGFSFSTTYYMCWVRQAPGKGLEWIGCTNTASSVRTYYATWAKGRFTISRDNSKNTVYLQMNSLRAEDTAVYYCARDMGFADYALNLWGQGTLVTVSS
# notes: PRO1922 variant; VH substitution, AHo numbering; also called PRO1922 P15A
# B2: PRO2994 (scFv 54-21-H03-sc01_(P48A)) (scFv)
# scFv: B1 scFv with A146P, P174A
# notes: PRO1922 variant; VH substitution, AHo numbering; also called PRO1922 P48A
# B3: PRO3318 (scFv 54-21-H03-sc01_(L12A, T101R, L144A, T146Q)) (scFv)
# scFv: B1 scFv with L143A, A146P, T225R, L249A, T251Q
# notes: PRO1922 variant; VH substitutions, AHo numbering; also called PRO1922 L12A-T101R-L144A-T146Q
# B4: PRO3319 (scFv 54-21-H03-sc01_(L12A, T101S, L144A, T146R)) (scFv)
# scFv: B1 scFv with L143A, A146P, T225S, L249A, T251R
# notes: PRO1922 variant; VH substitutions, AHo numbering; also called PRO1922 L12A-T101S-L144A-T146R
# B5: PRO3320 (scFv 54-21-H03-sc01_(L12A, T101S, L144K, T146Q)) (scFv)
# scFv: B1 scFv with L143A, A146P, T225S, L249K, T251Q
# notes: PRO1922 variant; VH substitutions, AHo numbering; also called PRO1922 L12A-T101S-L144K-T146Q
# B6: PRO3321 (scFv 54-21-H03-sc01_(L12R, T101S, L144A, T146Q)) (scFv)
# scFv: B1 scFv with L143R, A146P, T225S, L249A, T251Q
# notes: PRO1922 variant; VH substitutions, AHo numbering; also called PRO1922 L12R-T101S-L144A-T146Q
# B7: PRO3322 (scFv 54-21-H03-sc01_(L12R, T101R, L144A, T146Q)) (scFv)
# scFv: B1 scFv with L143R, A146P, T225R, L249A, T251Q
# notes: PRO1922 variant; VH substitutions, AHo numbering; also called PRO1922 L12R-T101R-L144A-T146Q
# B8: PRO3323 (scFv 54-21-H03-sc01_(L12A, T101Q, L144A, T146Q)) (scFv)
# scFv: B1 scFv with L143A, A146P, T225Q, L249A, T251Q
# notes: PRO1922 variant; VH substitutions, AHo numbering; also called PRO1922 L12A-T101Q-L144A-T146Q
# B9: PRO3324 (scFv 54-21-H03-sc01_(T101R, T146Q)) (scFv)
# scFv: B1 scFv with A146P, T225R, T251Q
# notes: PRO1922 variant; VH substitutions, AHo numbering; also called PRO1922 T101R-T146Q
# B10: PRO3325 (scFv 54-21-H03-sc01_(T101S, T146R)) (scFv)
# scFv: B1 scFv with A146P, T225S, T251R
# notes: PRO1922 variant; VH substitutions, AHo numbering; also called PRO1922 T101S-T146R
# B11: PRO3326 (scFv 54-21-H03-sc01_(T101Q, T146Q)) (scFv)
# scFv: B1 scFv with A146P, T225Q, T251Q
# notes: PRO1922 variant; VH substitutions, AHo numbering; also called PRO1922 T101Q-T146Q
# B12: PRO3329 (scFv 54-21-H03-sc01_(T101Q)) (scFv)
# scFv: B1 scFv with A146P, T225Q
# notes: PRO1922 variant; VH substitution, AHo numbering; also called PRO1922 T101Q
# B13: PRO3344 (scFv 54-21-H03-sc01_(T101K, T146Q)) (scFv)
# scFv: B1 scFv with A146P, T225K, T251Q
# notes: PRO1922 variant; VH substitutions, AHo numbering; also called PRO1922 T101K-T146Q
# B14: PRO3345 (scFv 54-21-H03-sc01_(T101N, T146Q)) (scFv)
# scFv: B1 scFv with A146P, T225N, T251Q
# notes: PRO1922 variant; VH substitutions, AHo numbering; also called PRO1922 T101N-T146Q
# B15: PRO3346 (scFv 54-21-H03-sc01_(T101S T146K)) (scFv)
# scFv: B1 scFv with A146P, T225S, T251K
# notes: PRO1922 variant; VH substitutions, AHo numbering; also called PRO1922 T101S-T146K
# B16: PRO3347 (scFv 54-21-H03-sc01_(T101S, T146S)) (scFv)
# scFv: B1 scFv with A146P, T225S, T251S
# notes: PRO1922 variant; VH substitutions, AHo numbering; also called PRO1922 T101S-T146S
# B17: PRO3348 (scFv 54-21-H03-sc01_(T101K, T146D)) (scFv)
# scFv: B1 scFv with A146P, T225K, T251D
# notes: PRO1922 variant; VH substitutions, AHo numbering; also called PRO1922 T101K-T146D
# B18: PRO3349 (scFv 54-21-H03-sc01_(T101R, T146E)) (scFv)
# scFv: B1 scFv with A146P, T225R, T251E
# notes: PRO1922 variant; VH substitutions, AHo numbering; also called PRO1922 T101R-T146E
# Target: pre-existing anti-drug antibodies (ADA) present in human sera
# Assay: pre-existing ADA ELISA, scFv coated, human sera unspiked vs spiked
Binder,Mean No of serum samples >30% inhibition (30% CCP) with SCP (serum samples),No of serum samples >30% inhibition (30% CCP) without SCP (serum samples)
B1,2,3
B2,2,6
B3,0,0
B4,0,0
B5,0,0
B6,0,0
B7,0,0
B8,0,0
B9,1,2
B10,1,4
B11,0,0
B12,1,2
B13,0,0
B14,0,0
B15,0,0
B16,3,3
B17,0,0
B18,0,0

# Target: T1, human a-Mesothelin (Acro Biosystems; MSN_H5223) (human, UniProt Q13421 296-580, limits assumed)
# T1 construct: Bought protein immobilised on the SPR chip; Printed as 'a-Mesothelin' but used as the antigen for the anti-MSLN scFvs; also called Human MSLN; MSLN
# T1 sequence (Q13421 other isoform, or with tags, fused parts or gaps limits assumed): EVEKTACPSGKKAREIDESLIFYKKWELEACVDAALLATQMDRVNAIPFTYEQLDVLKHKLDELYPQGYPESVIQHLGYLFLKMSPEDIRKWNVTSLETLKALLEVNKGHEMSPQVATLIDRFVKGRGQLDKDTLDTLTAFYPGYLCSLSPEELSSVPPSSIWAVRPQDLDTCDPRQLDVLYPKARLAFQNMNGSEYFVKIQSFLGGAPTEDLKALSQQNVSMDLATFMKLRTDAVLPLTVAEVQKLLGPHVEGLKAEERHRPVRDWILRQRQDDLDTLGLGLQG
# Assay: SPR, mesothelin immobilised, scFv analyte, 1:1 fit
# Protocol: The mutation variants were then injected at concentrations of 10 nM, 2 nM and 0.4 nM over the ligand-immobilized and reference spots. The wild type variants were used as a control, while an empty spot was used as reference.
# After each cycle with analyte, the surface was regenerated with a 3M MgCl₂ solution, thereby allowing the next analyte cycle to have only free ligand available. Binding affinity KD was globally calculated by the Bruker SPR software based on the binding association (kₒₙ) and dissociation (Koff) rate, by fitting a 1:1 Langmuir model to the curves obtained by the cycles with the three different concentrations of the analyte.
Binder,Kd [nM],n-fold to wt [fold]
B1,0.82,0.5
B2,1.5,0.8
B3,2.3,1.3
B4,2.5,1.4
B5,1.6,0.9
B6,1.7,0.9
B7,2.1,1.2
B8,1.7,0.9
B9,1.9,1.1
B10,1.8,1
B11,1.8,1
B12,1.6,0.9
B13,1.6,0.9
B14,1.5,0.8
B15,1.5,0.8
B16,1.7,0.9
B17,2.5,1.4
B18,1.9,1.1
